This series has as its system Escherichia coli TOP10. The series is described as follows: shrunken log2 fold change of peptide-encoding DNA abundance (4.5 h post-induction vs induction); higher = less antimicrobial activity (less host growth inhibition). As to conditions: time post-induction: 4.5 h; library: site-saturation at positions 5, 18, 19, 20.
With RRIRERPPRLPRPRPRPFMWPRP, the “shrunken log2 fold change” value is -0.262.

Take RRIRSRPPRLPRPRPRPQQNPRP: the “shrunken log2 fold change” value is -0.0687.

Regarding RRIRARPPRLPRPRPRPVDTPRP, the “shrunken log2 fold change” value was found to be 0.186.

Consider RRIRCRPPRLPRPRPRPYVRPRP, for which the “shrunken log2 fold change” value is -0.0787.

Consider RRIRSRPPRLPRPRPRPYFIPRP, for which the “shrunken log2 fold change” value was -1.06.

On to RRIRSRPPRLPRPRPRPMNPPRP, for which the “shrunken log2 fold change” value was -0.0648.

For the sequence RRIRPRPPRLPRPRPRPSTVPRP, the “shrunken log2 fold change” value is -0.687.

Turning to RRIRQRPPRLPRPRPRPQNRPRP, the “shrunken log2 fold change” value is -0.0176.

Take RRIRRRPPRLPRPRPRPPLGPRP: the “shrunken log2 fold change” value stood at 0.998.

As for RRIRWRPPRLPRPRPRPNEQPRP, the “shrunken log2 fold change” value was -0.00804.

For RRIRWRPPRLPRPRPRPHDEPRP, the “shrunken log2 fold change” value is -0.2.

Turning to RRIRNRPPRLPRPRPRPMRWPRP, the “shrunken log2 fold change” value is 0.892.

Turning to RRIRSRPPRLPRPRPRPCFCPRP, the “shrunken log2 fold change” value is -0.489.

For the sequence RRIRERPPRLPRPRPRPWAKPRP, the “shrunken log2 fold change” value was -0.015.

Turning to RRIRPRPPRLPRPRPRPHIMPRP, the “shrunken log2 fold change” value is -0.663.

Turning to RRIRPRPPRLPRPRPRPTTEPRP, the “shrunken log2 fold change” value stood at 0.109.

In the case of RRIRRRPPRLPRPRPRPGVLPRP, the “shrunken log2 fold change” value was found to be 0.465.

On to RRIRARPPRLPRPRPRPDHKPRP, for which the “shrunken log2 fold change” value was -0.312.

As to RRIRDRPPRLPRPRPRPMMTPRP, the “shrunken log2 fold change” value amounted to 0.395.

As to RRIRTRPPRLPRPRPRPNERPRP, the “shrunken log2 fold change” value was -0.0561.

For RRIRQRPPRLPRPRPRPLMSPRP, the “shrunken log2 fold change” value was -0.0453.

In the case of RRIRMRPPRLPRPRPRPPKNPRP, the “shrunken log2 fold change” value amounted to 1.18.

As for RRIRCRPPRLPRPRPRPTHDPRP, the “shrunken log2 fold change” value worked out at 0.302.

Regarding RRIRLRPPRLPRPRPRPHQKPRP, the “shrunken log2 fold change” value is -0.0932.

As for RRIRLRPPRLPRPRPRPHHPPRP, the “shrunken log2 fold change” value is -0.316.

Take RRIRERPPRLPRPRPRPFWYPRP: the “shrunken log2 fold change” value is -0.000951.

Turning to RRIRGRPPRLPRPRPRPQYRPRP, the “shrunken log2 fold change” value is 0.0878.

RRIRNRPPRLPRPRPRPHLLPRP: the “shrunken log2 fold change” value was -1.08.

For RRIRTRPPRLPRPRPRPLFKPRP, the “shrunken log2 fold change” value came out at 1.5.

Turning to RRIRFRPPRLPRPRPRPDARPRP, the “shrunken log2 fold change” value was -0.0768.

As to RRIRTRPPRLPRPRPRPPLRPRP, the “shrunken log2 fold change” value was found to be 0.314.

In the case of RRIRWRPPRLPRPRPRPYEIPRP, the “shrunken log2 fold change” value was -0.402.

On to RRIRERPPRLPRPRPRPLNGPRP, for which the “shrunken log2 fold change” value is -0.254.

With RRIRTRPPRLPRPRPRPGLLPRP, the “shrunken log2 fold change” value worked out at 0.0639.

With RRIRHRPPRLPRPRPRPWLSPRP, the “shrunken log2 fold change” value was -0.0373.

In the case of RRIRQRPPRLPRPRPRPIWWPRP, the “shrunken log2 fold change” value came out at 0.127.

As to RRIRRRPPRLPRPRPRPRQVPRP, the “shrunken log2 fold change” value was 0.466.

Turning to RRIRCRPPRLPRPRPRPSMKPRP, the “shrunken log2 fold change” value was -0.567.

On to RRIRPRPPRLPRPRPRPAFIPRP, for which the “shrunken log2 fold change” value was -0.222.

For RRIRARPPRLPRPRPRPWQCPRP, the “shrunken log2 fold change” value was -0.197.

In the case of RRIRFRPPRLPRPRPRPHMVPRP, the “shrunken log2 fold change” value is -0.809.

On to RRIRHRPPRLPRPRPRPIIHPRP, for which the “shrunken log2 fold change” value was determined as 0.142.

For RRIRIRPPRLPRPRPRPFLLPRP, the “shrunken log2 fold change” value is -0.563.

Regarding RRIRQRPPRLPRPRPRPGIKPRP, the “shrunken log2 fold change” value is -1.89e-05.

Regarding RRIRGRPPRLPRPRPRPHTNPRP, the “shrunken log2 fold change” value amounted to 0.221.

RRIRSRPPRLPRPRPRPQDRPRP: the “shrunken log2 fold change” value is -0.0318.

On to RRIRNRPPRLPRPRPRPIQFPRP, for which the “shrunken log2 fold change” value is -0.178.

Turning to RRIRERPPRLPRPRPRPKREPRP, the “shrunken log2 fold change” value was determined as 0.118.

Turning to RRIRWRPPRLPRPRPRPSWCPRP, the “shrunken log2 fold change” value is -0.0416.

In the case of RRIRNRPPRLPRPRPRPIWHPRP, the “shrunken log2 fold change” value is -0.356.

Turning to RRIRIRPPRLPRPRPRPSDNPRP, the “shrunken log2 fold change” value was -0.421.

RRIRRRPPRLPRPRPRPECIPRP: the “shrunken log2 fold change” value was 0.282.

Regarding RRIRKRPPRLPRPRPRPDYLPRP, the “shrunken log2 fold change” value was found to be 0.111.

Regarding RRIRSRPPRLPRPRPRPETLPRP, the “shrunken log2 fold change” value stood at 0.0893.

Take RRIRFRPPRLPRPRPRPDTMPRP: the “shrunken log2 fold change” value is -0.0817.

Regarding RRIRPRPPRLPRPRPRPTWIPRP, the “shrunken log2 fold change” value came to 0.184.

For RRIRHRPPRLPRPRPRPQLRPRP, the “shrunken log2 fold change” value was -0.343.

Take RRIRMRPPRLPRPRPRPYTDPRP: the “shrunken log2 fold change” value was -0.161.

Take RRIRERPPRLPRPRPRPMQFPRP: the “shrunken log2 fold change” value was -0.248.

With RRIRWRPPRLPRPRPRPKIVPRP, the “shrunken log2 fold change” value was -0.272.

With RRIRVRPPRLPRPRPRPNGEPRP, the “shrunken log2 fold change” value worked out at 0.0914.

With RRIRSRPPRLPRPRPRPINCPRP, the “shrunken log2 fold change” value was -0.159.

As to RRIRIRPPRLPRPRPRPRENPRP, the “shrunken log2 fold change” value worked out at 0.0178.

Take RRIRGRPPRLPRPRPRPRSCPRP: the “shrunken log2 fold change” value is 0.759.

For RRIRTRPPRLPRPRPRPMAVPRP, the “shrunken log2 fold change” value is -0.296.

As to RRIRQRPPRLPRPRPRPDADPRP, the “shrunken log2 fold change” value is -0.0253.

Consider RRIRGRPPRLPRPRPRPNKTPRP, for which the “shrunken log2 fold change” value is -0.0264.

Regarding RRIRPRPPRLPRPRPRPSKLPRP, the “shrunken log2 fold change” value was -0.224.

RRIRSRPPRLPRPRPRPNMMPRP: the “shrunken log2 fold change” value is -0.166.

With RRIRKRPPRLPRPRPRPFFGPRP, the “shrunken log2 fold change” value worked out at 0.304.

Turning to RRIRARPPRLPRPRPRPPEYPRP, the “shrunken log2 fold change” value came out at 0.386.

Turning to RRIRRRPPRLPRPRPRPCFKPRP, the “shrunken log2 fold change” value is -0.236.

In the case of RRIRMRPPRLPRPRPRPMTEPRP, the “shrunken log2 fold change” value was found to be 0.12.

On to RRIRDRPPRLPRPRPRPKYRPRP, for which the “shrunken log2 fold change” value is -0.0164.

With RRIRDRPPRLPRPRPRPGRPPRP, the “shrunken log2 fold change” value was 0.136.

With RRIRIRPPRLPRPRPRPAYTPRP, the “shrunken log2 fold change” value was -1.41.

On to RRIRYRPPRLPRPRPRPNLLPRP, for which the “shrunken log2 fold change” value is -0.213.

With RRIRPRPPRLPRPRPRPKSEPRP, the “shrunken log2 fold change” value worked out at 0.197.

For RRIRPRPPRLPRPRPRPVHVPRP, the “shrunken log2 fold change” value turned out to be 0.18.

RRIRMRPPRLPRPRPRPKTGPRP: the “shrunken log2 fold change” value was 0.895.

For RRIRRRPPRLPRPRPRPNDQPRP, the “shrunken log2 fold change” value worked out at 0.261.

For RRIRTRPPRLPRPRPRPTQVPRP, the “shrunken log2 fold change” value amounted to 0.131.

For RRIRLRPPRLPRPRPRPNKSPRP, the “shrunken log2 fold change” value is -0.354.

Take RRIRERPPRLPRPRPRPSHHPRP: the “shrunken log2 fold change” value is -0.73.

With RRIRNRPPRLPRPRPRPISYPRP, the “shrunken log2 fold change” value was -0.029.

In the case of RRIRSRPPRLPRPRPRPYVSPRP, the “shrunken log2 fold change” value was -0.136.

For RRIRPRPPRLPRPRPRPCLWPRP, the “shrunken log2 fold change” value is 0.0902.

Consider RRIRYRPPRLPRPRPRPFKHPRP, for which the “shrunken log2 fold change” value is -0.349.

RRIRTRPPRLPRPRPRPVSSPRP: the “shrunken log2 fold change” value came out at 0.651.

As for RRIRMRPPRLPRPRPRPQLCPRP, the “shrunken log2 fold change” value stood at 0.237.

RRIRNRPPRLPRPRPRPMSPPRP: the “shrunken log2 fold change” value is -0.000685.

On to RRIRERPPRLPRPRPRPPQFPRP, for which the “shrunken log2 fold change” value was -0.151.

In the case of RRIRMRPPRLPRPRPRPRCIPRP, the “shrunken log2 fold change” value is -0.0309.

Turning to RRIRWRPPRLPRPRPRPRDWPRP, the “shrunken log2 fold change” value was 0.958.

RRIRGRPPRLPRPRPRPNYFPRP: the “shrunken log2 fold change” value stood at 0.0394.

As for RRIRCRPPRLPRPRPRPVNIPRP, the “shrunken log2 fold change” value was -0.971.

With RRIRYRPPRLPRPRPRPCWQPRP, the “shrunken log2 fold change” value was 0.013.

RRIRWRPPRLPRPRPRPMYTPRP: the “shrunken log2 fold change” value is 0.0906.

Consider RRIRARPPRLPRPRPRPERCPRP, for which the “shrunken log2 fold change” value worked out at 1.09.

As for RRIRARPPRLPRPRPRPQYNPRP, the “shrunken log2 fold change” value was -0.334.

In the case of RRIRDRPPRLPRPRPRPACYPRP, the “shrunken log2 fold change” value was -0.142.

Regarding RRIRARPPRLPRPRPRPWMWPRP, the “shrunken log2 fold change” value was determined as 0.213.

On to RRIRDRPPRLPRPRPRPSNLPRP, for which the “shrunken log2 fold change” value was -0.0257.

RRIRTRPPRLPRPRPRPRLPPRP: the “shrunken log2 fold change” value stood at 0.119.

For RRIRFRPPRLPRPRPRPGHTPRP, the “shrunken log2 fold change” value was -0.445.

For the sequence RRIRCRPPRLPRPRPRPWRYPRP, the “shrunken log2 fold change” value is 0.0621.

For the sequence RRIRWRPPRLPRPRPRPAKRPRP, the “shrunken log2 fold change” value was -0.0468.

Regarding RRIRARPPRLPRPRPRPIWRPRP, the “shrunken log2 fold change” value is 0.426.

Turning to RRIRRRPPRLPRPRPRPRAMPRP, the “shrunken log2 fold change” value is 0.145.

Regarding RRIRPRPPRLPRPRPRPGWAPRP, the “shrunken log2 fold change” value came to 0.623.

As to RRIRSRPPRLPRPRPRPWWDPRP, the “shrunken log2 fold change” value was -0.137.

Regarding RRIRYRPPRLPRPRPRPVCEPRP, the “shrunken log2 fold change” value came out at 0.0427.

Take RRIRLRPPRLPRPRPRPDRLPRP: the “shrunken log2 fold change” value is -0.0156.

Take RRIRFRPPRLPRPRPRPDEHPRP: the “shrunken log2 fold change” value was -0.0688.

For RRIRDRPPRLPRPRPRPVGHPRP, the “shrunken log2 fold change” value was determined as 0.423.

Regarding RRIRKRPPRLPRPRPRPNRLPRP, the “shrunken log2 fold change” value amounted to 0.497.

Consider RRIRMRPPRLPRPRPRPQVLPRP, for which the “shrunken log2 fold change” value was 0.25.

For the sequence RRIRYRPPRLPRPRPRPYDDPRP, the “shrunken log2 fold change” value was -0.129.

For the sequence RRIRFRPPRLPRPRPRPQRAPRP, the “shrunken log2 fold change” value worked out at 0.462.

For the sequence RRIRIRPPRLPRPRPRPNFEPRP, the “shrunken log2 fold change” value is -0.218.

Regarding RRIRVRPPRLPRPRPRPFVMPRP, the “shrunken log2 fold change” value stood at 0.0296.

Take RRIRHRPPRLPRPRPRPQREPRP: the “shrunken log2 fold change” value was -0.0507.

RRIRFRPPRLPRPRPRPEATPRP: the “shrunken log2 fold change” value was found to be 0.565.

With RRIRYRPPRLPRPRPRPQHAPRP, the “shrunken log2 fold change” value is -0.313.

As for RRIRKRPPRLPRPRPRPLKHPRP, the “shrunken log2 fold change” value was 0.0711.

These data come from the supplement of paper PMC9112550, “Optimization of the antimicrobial peptide Bac7 by deep mutational scanning” (BMC Biology, 2022).
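Also: peptides expressed intracellularly from a pBAD plasmid library in pooled LB shake-flask culture, induced with 0.3% L-arabinose, DNA abundance read by NGS, three biological replicates, DESeq2 with apeglm shrinkage.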
